Experimental data taken from the supplement of paper PMC11246515.
± gives the standard deviation of the averaged measurements.

Test: total protein half-life in vivo (active degradation + dilution); higher = more stable protein
[1] = E. coli NCM3722 delta-clpP delta-lon delta-hslV, growth: N-lim chemostat, doubling time 6 h
[2] = E. coli NCM3722 delta-clpP, growth: N-lim chemostat, doubling time 6 h
[3] = E. coli NCM3722 delta-hslV, growth: N-lim chemostat, doubling time 6 h
[4] = E. coli NCM3722 delta-lon, growth: N-lim chemostat, doubling time 6 h
[5] = E. coli NCM3722 delta-smpB, growth: N-lim chemostat, doubling time 6 h
[6] = wild type E. coli NCM3722, growth: C-lim chemostat, doubling time 3 h
[7] = wild type E. coli NCM3722, growth: C-lim chemostat, doubling time 6 h
[8] = wild type E. coli NCM3722, growth: C-lim chemostat, doubling time 12 h
[9] = wild type E. coli NCM3722, growth: N-lim chemostat, doubling time 6 h
[10] = wild type E. coli NCM3722, growth: N-lim chemostat, doubling time 12 h
[11] = wild type E. coli NCM3722, growth: P-lim chemostat, doubling time 6 h
[12] = wild type E. coli NCM3722, growth: P-lim chemostat, doubling time 12 h

Sequence | total protein half-life in vivo [1] [h] | total protein half-life in vivo [2] [h] | total protein half-life in vivo [3] [h] | total protein half-life in vivo [4] [h] | total protein half-life in vivo [5] [h] | total protein half-life in vivo [6] [h] | total protein half-life in vivo [7] [h] | total protein half-life in vivo [8] [h] | total protein half-life in vivo [9] [h] | total protein half-life in vivo [10] [h] | total protein half-life in vivo [11] [h] | total protein half-life in vivo [12] [h]
MSQHNEKNPHQHQSPLHDSSEAKPGMDSLAPEDGSHRPAAEPTPPGAQPTAPGSLKAPDTRNEKLNSLEDVRKGSENYALTTNQGVRIADDQNSLRAGSRGPTLLEDFILREKITHFDHERIPERIVHARGSAAHGYFQPYKSLSDITKADFLSDPNKITPVFVRFSTVQGGAGSADTVRDIRGFATKFYTEEGIFDLVGNNTPIFFIQDAHKFPDFVHAVKPEPHWAIPQGQSAHDTFWDYVSLQPETLHNVMWAMSDRGIPRSYRTMEGFGIHTFRLINAEGKATFVRFHWKPLAGKASLVWDEAQKLTGRDPDFHRRELWEAIEAGDFPEYELGFQLIPEEDEFKFDFDLLDPTKLIPEELVPVQRVGKMVLNRNPDNFFAENEQAAFHPGHIVPGLDFTNDPLLQGRLFSYTDTQISRLGGPNFHEIPINRPTCPYHNFQRDGMHRMGIDTNPANYEPNSINDNWPRETPPGPKRGGFESYQERVEGNKVRERSPSFGEYYSHPRLFWLSQTPFEQRHIVDGFSFELSKVVRPYIRERVVDQLAHIDLTLAQAVAKNLGIELTDDQLNITPPPDVNGLKKDPSLSLYAIPDGDVKGRVVAILLNDEVRSADLLAILKALKAKGVHAKLLYSRMGEVTADDGTVLPIAATFAGAPSLTVDAVIVPCGNIADIADNGDANYYLMEAYKHLKPIALAGDARKFKATIKIADQGEEGIVEADSADGSFMDELLTLMAAHRVWSRIPKIDKIPA | 6.34 ± 0.49 | 6.14 ± 0.56 | 5.76 ± 0.4 | 5.78 ± 0.094 | 5.28 ± 0.077 | 2.79 ± 0.4 | 5.76 ± 0.23 | 10.8 ± 0.26 | 5.81 ± 0.24 | 12.3 ± 1.9 | 5.88 ± 0.41 | 11.9 ± 0.53
MSAQINNIRPEFDREIVDIVDYVMNYEISSKVAYDTAHYCLLDTLGCGLEALEYPACKKLLGPIVPGTVVPNGVRVPGTQFQLDPVQAAFNIGAMIRWLDFNDTWLAAEWGHPSDNLGGILATADWLSRNAVASGKAPLTMKQVLTAMIKAHEIQGCIALENSFNRVGLDHVLLVKVASTAVVAEMLGLTREEILNAVSLAWVDGQSLRTYRHAPNTGTRKSWAAGDATSRAVRLALMAKTGEMGYPSALTAPVWGFYDVSFKGESFRFQRPYGSYVMENVLFKISFPAEFHSQTAVEAAMTLYEQMQAAGKTAADIEKVTIRTHEACIRIIDKKGPLNNPADRDHCIQYMVAIPLLFGRLTAADYEDNVAQDKRIDALREKINCFEDPAFTADYHDPEKRAIANAITLEFTDGTRFEEVVVEYPIGHARRRQDGIPKLVDKFKINLARQFPTRQQQRILEVSLDRARLEQMPVNEYLDLYVI |  |  |  |  |  | 3.04 ± 0.28 | 4.21 ± 0.07 | 8.53 ± 1 | 5.98 |  |  | 
MDSLNLNKHISGQFNAELESIRTQVMTMGGMVEQQLSDAITAMHNQDSDLAKRVIEGDKNVNMMEVAIDEACVRIIAKRQPTASDLRLVMVISKTIAELERIGDVADKICRTALEKFSQQHQPLLVSLESLGRHTIQMLHDVLDAFARMDIDEAVRIYREDKKVDQEYEGIVRQLMTYMMEDSRTIPSVLTALFCARSIERIGDRCQNICEFIFYYVKGQDFRHVGGDELDKLLAGKDSDK [P0A9K7] | 4.61 ± 0.4 | 4.64 ± 0.5 | 4.2 ± 0.34 | 4.81 ± 0.26 | 4.01 ± 0.1 | 2.88 ± 0.12 | 5.04 ± 0.29 | 9.47 ± 0.65 | 4.09 ± 0.23 | 6.41 ± 0.26 | 5.17 ± 0.13 | 10.8 ± 0.029
MMNSTNKLSVIIPLYNAGDDFRTCMESLITQTWTALEIIIINDGSTDNSVEIAKYYAENYPHVRLLHQANAGASVARNRGIEVATGKYVAFVDADDEVYPTMYETLMTMALEDDLDVAQCNADWCFRETGETWQSIPTDRLRSTGVLTGPDWLRMGLSSRRWTHVVWMGVYRRDVIVKNNIKFIAGLHHQDIVWTTEFMFNALRARYTEQSLYKYYLHNTSVSRLHRQGNKNLNYQRHYIKITRLLEKLNRNYADKIMIYPEFHQQITYEALRVCHAVRKEPDILTRQRMIAEIFTSGMYKRLITNVRSVKVGYQALLWSFRLWQWRDKTRSHHRITRSAFNLR | 5.55 ± 0.4 | 0.858 |  |  | 0.809 ± 0.17 |  |  |  |  |  | 0.32 ± 0.2 | 0.789 ± 0.74
MKKVVTVCPYCASGCKINLVVDNGKIVRAEAAQGKTNQGTLCLKGYYGWDFINDTQILTPRLKTPMIRRQRGGKLEPVSWDEALNYVAERLSAIKEKYGPDAIQTTGSSRGTGNETNYVMQKFARAVIGTNNVDCCARVUHGPSVAGLHQSVGNGAMSNAINEIDNTDLVFVFGYNPADSHPIVANHVINAKRNGAKIIVCDPRKIETARIADMHIALKNGSNIALLNAMGHVIIEENLYDKAFVASRTEGFEEYRKIVEGYTPESVEDITGVSASEIRQAARMYAQAKSAAILWGMGVTQFYQGVETVRSLTSLAMLTGNLGKPHAGVNPVRGQNNVQGACDMGALPDTYPGYQYVKDPANREKFAKAWGVESLPAHTGYRISELPHRAAHGEVRAAYIMGEDPLQTDAELSAVRKAFEDLELVIVQDIFMTKTASAADVILPSTSWGEHEGVFTAADRGFQRFFKAVEPKWDLKTDWQIISEIATRMGYPMHYNNTQEIWDELRHLCPDFYGATYEKMGELGFIQWPCRDTSDADQGTSYLFKEKFDTPNGLAQFFTCDWVAPIDKLTDEYPMVLSTVREVGHYSCRSMTGNCAALAALADEPGYAQINTEDAKRLGIEDEALVWVHSRKGKIITRAQVSDRPNKGAIYMTYQWWIGACNELVTENLSPITKTPEYKYCAVRVEPIADQRAAEQYVIDEYNKLKTRLREAALA | 4.17 ± 0.28 |  |  |  |  |  |  |  |  |  |  | 
MLRPVETPTREIKKLDGLWAFSLDRENCGIDQRWWESALQESRAIAVPGSFNDQFADADIRNYAGNVWYQREVFIPKGWAGQRIVLRFDAVTHYGKVWVNNQEVMEHQGGYTPFEADVTPYVIAGKSVRITVCVNNELNWQTIPPGMVITDENGKKKQSYFHDFFNYAGIHRSVMLYTTPNTWVDDITVVTHVAQDCNHASVDWQVVANGDVSVELRDADQQVVATGQGTSGTLQVVNPHLWQPGEGYLYELCVTAKSQTECDIYPLRVGIRSVAVKGEQFLINHKPFYFTGFGRHEDADLRGKGFDNVLMVHDHALMDWIGANSYRTSHYPYAEEMLDWADEHGIVVIDETAAVGFNLSLGIGFEAGNKPKELYSEEAVNGETQQAHLQAIKELIARDKNHPSVVMWSIANEPDTRPQGAREYFAPLAEATRKLDPTRPITCVNVMFCDAHTDTISDLFDVLCLNRYYGWYVQSGDLETAEKVLEKELLAWQEKLHQPIIITEYGVDTLAGLHSMYTDMWSEEYQCAWLDMYHRVFDRVSAVVGEQVWNFADFATSQGILRVGGNKKGIFTRDRKPKSAAFLLQKRWTGMNFGEKPQQGGKQ |  |  |  |  |  | 2.85 ± 0.27 | 5.46 ± 0.52 | 8.91 ± 1.3 |  |  |  | 
MADEIDAMALYRAWQQLDNGSCAQIRRVSEPDELRDIPAFYRLVQPFGWENPRHQQALLRMVFCLSAGKNVIRHQDKKSEQTTGISLGRALANSGRINERRIFQLIRADRTADMVQLRRLLTHAEPVLDWPLMARMLTWWGKRERQQLLEDFVLTTNKNA | 5.62 ± 1.1 |  |  |  |  |  |  |  |  |  |  | 
MTIYFINWVADYELKMIQYLKKKYKIKNITTPKKYNWINKKISKIGMDNAWLGRLFIKHYLNDIKKDDIIIINDSVVNKGINKQILKNINCHKVLLLRNTVGEDFILDNANYFDIIYDFEHRFIGNEKIKAIEQFFPIGMDEIRNYSLSDKNNSQPICFFLGRDKGRLQIINELAERLTTLGCKLDFNVVKDKTSSTTSKYLIEKQISYEENIRRTLNANIIVDITKENQSGWTLRILEALFFNKKLITNNINVFGSEIYSESRFFIIGHDDWDKLEYFINSSVKPMDYDSLYKFSPDKMMSTIVSDFIDK | 7.07 ± 1.2 |  | 5.4 ± 0.26 |  | 4.651 ± 0.02 | 2.87 ± 0.037 | 4.87 ± 0.59 | 9.41 ± 2.8 | 5.54 ± 0.49 | 10.8 ± 2.5 | 4.59 ± 0.58 | 10.1 ± 1
MSDQLQMTDGMHIIVEALKQNNIDTIYGVVGIPVTDMARHAQAEGIRYIGFRHEQSAGYAAAASGFLTQKPGICLTVSAPGFLNGLTALANATVNGFPMIMISGSSDRAIVDLQQGDYEELDQMNAAKPYAKAAFRVNQPQDLGIALARAIRVSVSGRPGGVYLDLPANVLAATMEKDEALTTIVKVENPSPALLPCPKSVTSAISLLAKAERPLIILGKGAAYSQADEQLREFIESAQIPFLPMSMAKGILEDTHPLSAAAARSFALANADVVMLVGARLNWLLAHGKKGWAADTQFIQLDIEPQEIDSNRPIAVPVVGDIASSMQGMLAELKQNTFTTPLVWRDILNIHKQQNAQKMHEKLSTDTQPLNYFNALSAVRDVLRENQDIYLVNEGANTLDNARNIIDMYKPRRRLDCGTWGVMGIGMGYAIGASVTSGSPVVAIEGDSAFGFSGMEIETICRYNLPVTIVIFNNGGIYRGDGVDLSGAGAPSPTDLLHHARYDKLMDAFRGVGYNVTTTDELRHALTTGIQSRKPTIINVVIDPAAGTESGHITKLNPKQVAGN [P0AFI0] | 5.61 ± 0.33 |  |  |  | 3.08 | > 4 | 3.11 |  |  |  | 4.43 | 9.26 ± 0.98
